From patent US20250051464A1

Columns and labels:
[1] = target: Human EphA2 (ephrin receptor A2) (human) (UniProt P29317); assay: IHC/IF score on frozen human tumor tissue, ESC
[2] = target: Human EphA2 (ephrin receptor A2) (human) (UniProt P29317); assay: IHC/IF score on frozen human tumor tissue, Her2+ BRC
[3] = target: Human EphA2 (ephrin receptor A2) (human) (UniProt P29317); assay: IHC/IF score on frozen human tumor tissue, STS
[4] = target: Human EphA2 (ephrin receptor A2) (human) (UniProt P29317); assay: IHC/IF score on frozen human tumor tissue, PROC
[5] = target: Human EphA2 (ephrin receptor A2) (human) (UniProt P29317); assay: IHC/IF score on frozen human tumor tissue, RCC-papillary
[6] = target: Human EphA2 (ephrin receptor A2) (human) (UniProt P29317); assay: IHC/IF score on frozen human tumor tissue, MELA
[7] = target: Human EphA2 (ephrin receptor A2) (human) (UniProt P29317); assay: IHC/IF score on frozen human tumor tissue, NSCLC-Adeno
[8] = target: Human EphA2 (ephrin receptor A2) (human) (UniProt P29317); assay: IHC/IF score on frozen human tumor tissue, CRC
[9] = target: Human EphA2 (ephrin receptor A2) (human) (UniProt P29317); assay: IHC/IF score on frozen human tumor tissue, HNC
[10] = target: Human EphA2 (ephrin receptor A2) (human) (UniProt P29317); assay: IHC/IF score on frozen human tumor tissue, OVA
[11] = target: Human EphA2 (ephrin receptor A2) (human) (UniProt P29317); assay: IHC/IF score on frozen human tumor tissue, RCC-clear cell
[12] = target: Human EphA2 (ephrin receptor A2) (human) (UniProt P29317); assay: IHC/IF score on frozen human tumor tissue, UCEC-endometriod
[13] = target: Human EphA2 (ephrin receptor A2) (human) (UniProt P29317); assay: IHC/IF score on frozen human tumor tissue, URO
[14] = target: Human EphA2 (ephrin receptor A2) (human) (UniProt P29317); assay: IHC/IF score on frozen human tumor tissue, ER+ BRC
[15] = target: Human EphA2 (ephrin receptor A2) (human) (UniProt P29317); assay: IHC/IF score on frozen human tumor tissue, PANC
[16] = target: Human EphA2 (ephrin receptor A2) (human) (UniProt P29317); assay: IHC/IF score on frozen human tumor tissue, TNBC
[17] = target: Human EphA2 (ephrin receptor A2) (human) (UniProt P29317); assay: IHC/IF score on frozen human tumor tissue, UCEC-clear cell
[18] = target: Human EphA2 (ephrin receptor A2) (human) (UniProt P29317); assay: IHC/IF score on frozen human tumor tissue, UCEC-papillary
[19] = target: Human EphA2 (ephrin receptor A2) (human) (UniProt P29317); assay: IHC/IF score on frozen human tumor tissue, ANC
[20] = target: Human EphA2 (ephrin receptor A2) (human) (UniProt P29317); assay: IHC/IF score on frozen human tumor tissue, GAC
[21] = target: Human EphA2 (ephrin receptor A2) (human) (UniProt P29317); assay: IHC/IF score on frozen human tumor tissue, NSCLC-SQ

Sequence of Human EphA2 (ephrin receptor A2) (human) (P29317 24-976 limits assumed): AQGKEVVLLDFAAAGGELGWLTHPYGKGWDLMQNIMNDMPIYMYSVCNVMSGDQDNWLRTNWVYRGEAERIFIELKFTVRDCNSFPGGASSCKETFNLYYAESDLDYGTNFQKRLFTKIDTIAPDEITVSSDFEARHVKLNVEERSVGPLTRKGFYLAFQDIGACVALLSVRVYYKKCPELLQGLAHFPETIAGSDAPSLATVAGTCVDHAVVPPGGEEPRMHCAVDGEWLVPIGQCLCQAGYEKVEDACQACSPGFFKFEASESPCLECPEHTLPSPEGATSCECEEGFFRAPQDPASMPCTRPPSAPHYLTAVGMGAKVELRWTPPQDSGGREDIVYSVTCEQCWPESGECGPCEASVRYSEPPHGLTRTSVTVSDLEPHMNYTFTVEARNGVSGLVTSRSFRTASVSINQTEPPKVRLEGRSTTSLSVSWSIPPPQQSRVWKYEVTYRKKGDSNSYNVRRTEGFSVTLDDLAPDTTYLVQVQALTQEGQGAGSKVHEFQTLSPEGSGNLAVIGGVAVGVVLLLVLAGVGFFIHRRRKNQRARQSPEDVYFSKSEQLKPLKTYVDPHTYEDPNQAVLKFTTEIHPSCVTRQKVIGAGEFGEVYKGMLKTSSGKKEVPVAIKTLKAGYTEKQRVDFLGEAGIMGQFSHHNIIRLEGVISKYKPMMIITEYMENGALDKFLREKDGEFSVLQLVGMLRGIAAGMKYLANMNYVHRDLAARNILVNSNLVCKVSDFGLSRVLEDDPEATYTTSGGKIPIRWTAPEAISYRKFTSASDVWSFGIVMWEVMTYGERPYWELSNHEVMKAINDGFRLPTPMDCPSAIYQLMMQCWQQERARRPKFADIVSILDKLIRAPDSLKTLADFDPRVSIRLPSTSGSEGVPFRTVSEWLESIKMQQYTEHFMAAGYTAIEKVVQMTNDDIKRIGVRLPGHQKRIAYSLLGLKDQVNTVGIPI

| Substance | IHC score [1] | IHC score [2] | IHC score [3] | IHC score [4] | IHC score [5] | IHC score [6] | IHC score [7] | IHC score [8] | IHC score [9] | IHC score [10] | IHC score [11] | IHC score [12] | IHC score [13] | IHC score [14] | IHC score [15] | IHC score [16] | IHC score [17] | IHC score [18] | IHC score [19] | IHC score [20] | other results |
| --- | --- | --- | --- | --- | --- | --- | --- | --- | --- | --- | --- | --- | --- | --- | --- | --- | --- | --- | --- | --- | --- |
| 6997S (around Arg907) (antibody) | 2 | 1 | 1 | 1 | 1 | 2 | 1 | 1 | 1 | 1 | 1 | 1 | 1 | 1 | 1 | 1 | 2 | 2 | 2 | 1 | IHC score [21]: 1 |
| Ab73254 (extracellular) (antibody) | 1 | 1 | 1 | 1 | 1 | 2 | 2 | 1 | 1 | 1 | 1 | 1 | 1 | 1 | 1 | 1 | 2 | 1 | 1 | 1 | IHC score [21]: 2 |
| LS-B1794-50 (AA 450-500) (antibody) | 1 | 1 | 1 | 1 | 2 | 2 | 2 | 1 | 1 | 1 | 1 | 1 | 1 | 1 | 1 | 1 | 2 | 2 | 1 | 1 | IHC score [21]: 1 |
| LS-C36249-100 (extracellular) (antibody) | 2 | 2 | 2 | 1 | 1 | 3 | 2 | 1 | 2 | 2 | 1 | 2 | 1 | 1 | 1 | 1 | 2 | 3 | 2 | 1 | IHC score [21]: 2 |
| LS-C100255-400 (AA 30-60) (antibody) | 1 | 1 | 1 | 1 | 1 | 2 | 1 | 1 | 1 | 1 | 1 | 1 | 1 | 1 | 1 | 1 | 2 | 2 | 1 | 1 | IHC score [21]: 1 |
| MAB3035 (Gln25-Asn534) (antibody) | 2 | 1 | 1 | 1 | 1 | 3 | 2 | 1 | 2 | 2 | 1 | 2 | 1 | 1 | 2 | 1 | 2 | 2 | 2 | 1 | IHC score [21]: 2 |
